# According to publication PMC6879724:
# Molecular target: Manduca sexta CAD repeat 12 (CR12) fragment
# Assay: ELISA
# Settings: plates coated with 0.5 μg of CR12, read off a plot
Substance,"response (Absorbance 490 nm) (25 nM activated toxin mixed with PxHsp90 at a 1:30 ratio (toxin to chaperone), parent measured without PxHsp90, parent: est. 1.2)","response (Absorbance 490 nm) (25 nM activated toxin, no PxHsp90, parent: est. 1.2)","response (Absorbance 490 nm) (50 nM activated toxin mixed with PxHsp90 at a 1:30 ratio (toxin to chaperone), parent measured without PxHsp90, parent: est. 1.6)","response (Absorbance 490 nm) (50 nM activated toxin, no PxHsp90, parent: est. 1.6)","response (Absorbance 490 nm) (100 nM activated toxin mixed with PxHsp90 at a 1:30 ratio (toxin to chaperone), parent measured without PxHsp90, parent: est. 1.7)","response (Absorbance 490 nm) (100 nM activated toxin, no PxHsp90, parent: est. 1.7)","response (Absorbance 490 nm) (25 nM protoxin mixed with PxHsp90 at a 1:30 ratio (protoxin to chaperone), parent measured without PxHsp90, parent: est. …)","response (Absorbance 490 nm) (25 nM protoxin, no PxHsp90, parent: est. 0.86)","response (Absorbance 490 nm) (50 nM protoxin mixed with PxHsp90 at a 1:30 ratio (protoxin to chaperone), parent measured without PxHsp90, parent: est. …)","response (Absorbance 490 nm) (50 nM protoxin, no PxHsp90, parent: est. 0.95)","response (Absorbance 490 nm) (100 nM protoxin mixed with PxHsp90 at a 1:30 ratio (protoxin to chaperone), parent measured without PxHsp90, parent: est. …)","response (Absorbance 490 nm) (100 nM protoxin, no PxHsp90, parent: est. 1.2)"
Cry1Ab activated toxin (from UniProt P0A370) G439D,0.58,0.44,0.77,0.48,1.1,0.66,–,–,–,–,–,–
Cry1Ab protoxin (from UniProt P0A370) G439D,–,–,–,–,–,–,0.82,0.44,1.2,0.47,1.6,0.52
